Data: patent US6979460B1, “Vinyl ether lipids with cleavable hydrophlic headgroups” (Purdue Research Foundation, priority 1999, dated 2005)

Experiments:
[1] = DOPE:CVEP/calcein vesicles with DSPE-PEG3350-folate as targeting ligand
[2] = Acid-triggered calcein release from DOPE:vinyl ether lipid vesicles (calcein fluorescence dequenching assay); type: physicochemical
Method: DOPE and the labile PEG lipid were co-dissolved in chloroform that had been prefiltered through a 2.53 cm plug of anhydrous sodium carbonate to remove traces of acid and water from the solvent. This solution was evaporated under a gentle stream of N2 and further dried under vacuum (<200 μ, 4 h). Vesicles were formed by hydrating the lipid film in the presence of 50 mM calcein using five LN2 freeze-thaw-vortex cycles. This suspension was then extruded at 50° C. through two 100 nm track-etch polycarbonate membrane filters. Extraliposomal calcein was removed using a single pass through a 40 cm Sephadex G-50 gel column equilibrated with 150 mM NaCl. The fraction eluting at the void volume was collected and stored at 8° C. until use. Light-sensitive vesicles were prepared in the same manner, except that bacteriochlorophyll a (Bchl) was codissolved in the chloroform lipid solution. Other agents or mixtures of agents, such as therapeutic compounds or diagnostic agents, are substituted for calcein in the above protocol resulting in liposomal encapsulation of the substituted agent.
Vesicle release of the liposomes made in example 4 above, was monitored at 37° C. as a function of time using the calcein fluorescence dequenching assay. Acid-trigged release was initiated by dilution of the vesicles into an acidic buffer solution as described by Gerasimov et al. Light-triggered release was promoted by aerobic illumination (800 nm, 1 W) of a continuously stirred 1 cm quartz cuvette with a SDL 820 diode laser coupled to an optical fiber. The fiber was mounted perpendicular to the cuvette surface to produce a spot of ˜3 mm diameter. Both triggering methods were conducted either in the absence or presence of ten-fold excess of egg phosphatidylcholine (EPC) vesicles as a membrane “sink”.

Substance | cellular calcein fluorescence pattern (cytoplasmic delivery) [1] | t50% release ([2]; 98:2 DOPE:DVEP vesicles, pH 4.5, in the absence of sink EPC) | calcein leakage ([2]; 98:2 DOPE:DVEP vesicles, pH 7.4, sink EPC present or not) | t50% release ([2]; 98:2 DOPE:lipid vesicles (identical loadings), pH 4.5, 37° C.) [min]
4-o-Cholesteryl-(3Z-buten-1-yl)-polyethylene [125] glycolate [CVEP] | punctuated fluorescence, followed by diffuse cytoplasmic fluorescence |  |  | 
rac-1,2-Dioleyl-3-(4′-hydroxy-1′-butenyl)-glyceryl polyethylene [125] glycolate [DVEP] |  | ≈ 3 h | lack of leakage | 23
